Patent US20260028422A1 (CONCEPT TO MEDICINE BIOTECH, published 2026)
Positions count from the first letter of the chain named.

T1: human MerTK-his protein (human, UniProt Q12866 21-505)
T1 construct: extracellular domain; also called hMerTK-His; human MerTK protein
T1 sequence (looked up): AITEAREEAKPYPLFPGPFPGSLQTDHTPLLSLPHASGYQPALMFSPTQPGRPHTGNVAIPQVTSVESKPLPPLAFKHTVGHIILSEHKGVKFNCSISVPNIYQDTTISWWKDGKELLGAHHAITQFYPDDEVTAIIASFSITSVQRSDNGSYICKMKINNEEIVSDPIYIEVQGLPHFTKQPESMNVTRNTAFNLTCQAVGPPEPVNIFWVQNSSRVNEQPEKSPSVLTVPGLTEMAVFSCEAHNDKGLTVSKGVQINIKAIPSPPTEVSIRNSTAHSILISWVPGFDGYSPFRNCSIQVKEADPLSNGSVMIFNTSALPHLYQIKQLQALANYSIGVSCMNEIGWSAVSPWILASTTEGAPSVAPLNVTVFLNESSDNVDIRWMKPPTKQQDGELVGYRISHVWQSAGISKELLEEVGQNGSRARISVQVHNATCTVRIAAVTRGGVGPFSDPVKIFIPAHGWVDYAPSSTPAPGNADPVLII

T2: human MerTK expressed on cells (human, UniProt Q12866 21-999)
T2 construct: whole, on cells; also called CHO-K1-hMerTK; CHO-K1-MerTK
T2 sequence (looked up): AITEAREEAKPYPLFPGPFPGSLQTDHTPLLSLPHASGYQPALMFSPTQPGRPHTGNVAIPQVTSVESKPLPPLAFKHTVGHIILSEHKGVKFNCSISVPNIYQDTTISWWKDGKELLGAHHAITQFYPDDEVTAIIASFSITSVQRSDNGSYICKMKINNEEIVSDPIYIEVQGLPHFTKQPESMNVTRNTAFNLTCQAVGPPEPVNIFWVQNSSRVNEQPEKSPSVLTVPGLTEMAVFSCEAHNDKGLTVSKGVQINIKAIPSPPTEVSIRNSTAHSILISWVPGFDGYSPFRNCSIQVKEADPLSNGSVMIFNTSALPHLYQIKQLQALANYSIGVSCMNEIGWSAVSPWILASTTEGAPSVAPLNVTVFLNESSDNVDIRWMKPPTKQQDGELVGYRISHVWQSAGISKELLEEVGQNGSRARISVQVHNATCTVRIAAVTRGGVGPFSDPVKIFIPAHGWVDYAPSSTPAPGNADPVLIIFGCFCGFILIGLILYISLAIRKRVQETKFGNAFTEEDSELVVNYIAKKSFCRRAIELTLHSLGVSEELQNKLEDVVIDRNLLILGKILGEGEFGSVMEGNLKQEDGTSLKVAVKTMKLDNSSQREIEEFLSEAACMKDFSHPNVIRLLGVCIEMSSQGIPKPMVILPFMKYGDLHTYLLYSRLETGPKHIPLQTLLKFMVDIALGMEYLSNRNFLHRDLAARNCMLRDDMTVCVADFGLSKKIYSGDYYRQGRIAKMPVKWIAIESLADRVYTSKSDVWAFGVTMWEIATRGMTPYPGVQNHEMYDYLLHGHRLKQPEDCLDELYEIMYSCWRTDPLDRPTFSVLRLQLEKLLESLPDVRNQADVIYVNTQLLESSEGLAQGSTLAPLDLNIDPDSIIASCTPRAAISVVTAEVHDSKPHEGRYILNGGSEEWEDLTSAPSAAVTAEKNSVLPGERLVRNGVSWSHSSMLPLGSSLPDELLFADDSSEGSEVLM

B1: h13B4.v16 benchmark antibody (antibody, V domains shown)
VH: EVQLVESGEGLVQPGGSLRLSCAASGFSLSSYAMGWVRQAPGKGLEYVGIINSYGNTYYANWAKGRFTISRDNSKNTVYLQMGSLRAEDMAVYYCARDPGVSSNLWGRGTLVTVSS
VL: DIQMTQSPSTLSASVGDRVTITCQASQNIYSGLAWYQQKPGKAPKLLIYGASKLASGVPSRFSGSGSGTEFTLTISSLQPDDFATYYCQATYYSSNSVAFGGGTKVEIK
B2: 10F7D9 chimeric monoclonal antibody (antibody, V domains shown)
VH: QIQLVQSGPELKKPGETVKISCKASGYTFTNYGMNWVKQAPGKGLKWMGWINTYTGEPTYADDFKGRFAFSLETSASTAYLQINNLKNEDLATYFCATYGHYAWFAYWGQGTLVTVSA
VL: QIVLSQSPAILSASPGEKVTMTCRASSSVSYMHWYQQKSGSSPKPWIYATSNLASGVPARFSGSGSGTSYSLTISRVEAEDAATYFCQQWGTKPLTFGAGTKLELK
B3: 276C2D1 chimeric monoclonal antibody (antibody, V domains shown)
VH: QVQLQQSGPELVKPGASVKLSCKASGYTFTSYDINWVKQRPGLGLEWIGWIYPRDGYTKYNEKFKGKATLAVDTSSSTAYMELHSLTSEDSAVYFCARGYYSNLYYFDYWGQGTTLTVSS
VL: EVVLTQSPPTMAASPGEKITITCSASSSISSNYLHWYQQKPGFSPKLLIYRTSNLASGVPARFSGSGSGTSYSLTIGTMEAEDVATYYCQQGRSIPLTFGAGTKLELK
B4: 265F11B5 chimeric monoclonal antibody (antibody, V domains shown)
VH: B3 VH with K19R, S31T, K67R, A97T, S102D
VL: B3 VL with V2I, P9T, M11V, S28I, L34F, K40R, I95V
B5: 293C2B7 chimeric monoclonal antibody (antibody, V domains shown)
VH: B3 VH with L43Q, N61K, A71T, Y100F
VL: B3 VL with V2I, P9T, A13T, A61D
B6: 300A5A3 chimeric monoclonal antibody (antibody, V domains shown)
VH: B3 VH with S31T, Y80S, S102D, Y109N, Q112P
VL: B3 VL with V2N, P9T, M11V, S28I, V84A, I95V
B7: 254B4D9 chimeric monoclonal antibody (antibody, V domains shown)
VH: QIQLVQSGPELKKPGETVKISCKASGYTFTAYGMSWVKQAPGKGLQWMGWINTYSGVPTYTDDFKGRFAFSLEASASTAFLQINNLKNEDTSTYFCARRAAVVAKYWYFDVWGTGTTVTVSS
VL: DIQMTQSPSSLFASLGGKVIITCKSSQDINKRISWYQHKPGKGPRLLIHSTSSLQPGIPLRFSGSGSGRDYSFSISNLEPEDIATYFCLQYDNLLTFGAGTKLELK
B8: 280C6A3 chimeric monoclonal antibody (antibody, V domains shown)
VH: B3 VH with T28S, S31T, L43Q, Y57S, A71T, V72L, S77N, E82G, S102D
VL: B3 VL with V2I, P9T, I29V, S94I, I95V

Tests used:
human MerTK-his protein [1] = molecular target: T1, human MerTK-his protein; test: ELISA, plate coated with human MerTK-his, anti-human IgG Fc-HRP, OD 450nm
[2] = molecular target: T2, human MerTK expressed on cells; test: FACS on SK-MEL-5 cells expressing human MerTK, geometric mean
Method: To evaluate the binding properties on MerTK expressed on cells, the chimeric monoclonal antibodies were analyzed for their binding to human melanoma cell line SK-MEL-5 expressing MerTK by FACS analysis. Briefly, SK-MEL-5 cells were firstly incubated with 5-fold serially diluted chimeric mAbs starting at 20 nM at 4° C. for 30 mins. After washing by FACS buffer, the PE conjugated anti-human IgG secondary antibody was incubated with the cell-antibody complex in the wells at 4° C. for 30 mins to detect the antibodies those bound to the cells. The MFI of PE was evaluated by QuantAnalyzer 16.

human MerTK-his protein [3] = molecular target: T1, human MerTK-his protein; test: ELISA, plate coated with human MerTK-his, anti-human IgG Fc-HRP, OD 450nm; remark: listed apart in the source
human MerTK-his protein [4] = molecular target: T1, human MerTK-his protein; test: ELISA, plate coated with human MerTK-his, OD 450nm
Method: (§1) To evaluate the binding activity, the chimeric mAbs were subjected to ELISA test. Briefly, 96-well plates were coated with human or cyno MerTK-his protein at 2 μg/mL in PBS, 100 μL/well at 4° C. overnight, then blocked with 150 μL/well of 1% BSA. Five-fold dilutions of MerTK antibodies starting from 20 nM were added to each well and incubated for 1 hour at room temperature. The plates were washed with PBS/Tween-20 and then incubated with goat anti-human IgG Fe antibody conjugated with Horse Radish Peroxidase (HRP) for 30 minutes (mins) at room temperature. After washing, the plates were developed with TMB substrate and subsequent stop solution was added to complete the reaction. The signal from each well was read by spectrophotometer at OD 450 nm.
(§2) To evaluate the antigen binding activity, the humanized antibodies were subjected to ELISA test as described before.

[5] = molecular target: T2, human MerTK expressed on cells; test: FACS on CHO-K1 cells overexpressing human MerTK, MFI (AF488)
human MerTK-his protein [6] = molecular target: T1, human MerTK-his protein; test: SPR Biacore 8K, antibody captured on Protein A chip, 50 nM antigen
Method: To explore whether the humanized antibodies could maintain their binding kinetics, affinity ranking were performed with Biacore™. The antibodies were captured with a Protein A chips. Human MerTK-his protein at 50 nM was injected over captured antibodies for 180 s at a flow rate of 30 μL/min. The antigen was allowed to dissociate for 600 s. The experiment was carried out on a Biacore™ 8K. Data analysis was carried out using Biacore™ 8K evaluation software.

human MerTK-his protein [7] = molecular target: T1, human MerTK-his protein; test: ELISA, plate coated with human MerTK-his, OD 450nm; remark: listed apart in the source
Method: as §1, §2

| Binder | EC50 [2] [nM] | Top [2] [Geometric Mean] | EC50 (human MerTK-his protein [4]) [nM] | further results |
| --- | --- | --- | --- | --- |
| B1 | 0.12 | 4530 |  | EC50 (human MerTK-his protein [1]): 0.037 nM; EC50 (human MerTK-his protein [3]): 0.027 nM |
| B2 |  |  | 0.024 |  |
| B3 | 0.044 | 6950 |  |  |
| B4 | 0.048 | 7750 | 0.036 | EC50 [5]: 0.18 nM; Kd (human MerTK-his protein [6]): 0.392 nM; koff (human MerTK-his protein [6]): 7.78e-05 s⁻¹; kon (human MerTK-his protein [6]): 199000 M⁻¹ s⁻¹; EC50 (human MerTK-his protein [7]): 0.098 nM |
| B5 | 0.055 | 6960 |  |  |
| B6 | 0.074 | 7490 |  |  |
| B7 |  |  | 0.095 | Kd (human MerTK-his protein [6]): 34.9 nM; koff (human MerTK-his protein [6]): 0.000785 s⁻¹; kon (human MerTK-his protein [6]): 22500 M⁻¹ s⁻¹ |
| B8 | 0.039 | 7490 |  |  |
